{"source": "patent CN114591430A", "key": {"牛血清白蛋白(BSA) (bovine) [1]": {"target": "牛血清白蛋白(BSA) (bovine) (UniProt P02769)", "sequence (P02769 25-607)": "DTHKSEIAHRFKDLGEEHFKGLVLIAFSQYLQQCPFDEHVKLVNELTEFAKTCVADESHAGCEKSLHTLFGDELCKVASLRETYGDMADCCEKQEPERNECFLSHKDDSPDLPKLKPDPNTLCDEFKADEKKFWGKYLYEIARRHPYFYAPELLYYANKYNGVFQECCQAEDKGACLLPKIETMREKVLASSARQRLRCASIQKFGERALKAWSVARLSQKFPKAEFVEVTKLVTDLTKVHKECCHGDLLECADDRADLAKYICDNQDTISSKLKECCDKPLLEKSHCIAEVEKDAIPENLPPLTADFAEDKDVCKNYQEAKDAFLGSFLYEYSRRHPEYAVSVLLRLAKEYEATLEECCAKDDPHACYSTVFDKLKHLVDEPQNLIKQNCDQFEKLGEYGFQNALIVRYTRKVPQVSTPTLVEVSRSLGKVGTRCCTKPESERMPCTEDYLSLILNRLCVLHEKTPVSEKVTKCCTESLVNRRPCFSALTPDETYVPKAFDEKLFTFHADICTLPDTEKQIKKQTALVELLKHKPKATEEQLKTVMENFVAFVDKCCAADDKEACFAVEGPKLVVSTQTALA", "assay": "ELISA, BSA coated at 1 ug/ml, biotin-labelled antibody at dilution 1K, HRP-avidin"}, "牛血清白蛋白(BSA) (bovine) [2]": {"target": "牛血清白蛋白(BSA) (bovine) (UniProt P02769)", "assay": "ELISA, BSA coated at 1 ug/ml, biotin-labelled antibody at dilution 2K, HRP-avidin"}, "牛血清白蛋白(BSA) (bovine) [3]": {"target": "牛血清白蛋白(BSA) (bovine) (UniProt P02769)", "assay": "ELISA, BSA coated at 1 ug/ml, biotin-labelled antibody at dilution 4K, HRP-avidin"}, "牛血清白蛋白(BSA) (bovine) [4]": {"target": "牛血清白蛋白(BSA) (bovine) (UniProt P02769)", "assay": "ELISA, BSA coated at 1 ug/ml, biotin-labelled antibody at dilution 8K, HRP-avidin"}, "牛血清白蛋白(BSA) (bovine) [5]": {"target": "牛血清白蛋白(BSA) (bovine) (UniProt P02769)", "assay": "ELISA, BSA coated at 1 ug/ml, biotin-labelled antibody at dilution 16K, HRP-avidin"}, "牛血清白蛋白(BSA) (bovine) [6]": {"target": "牛血清白蛋白(BSA) (bovine) (UniProt P02769)", "assay": "ELISA, BSA coated at 1 ug/ml, biotin-labelled antibody at dilution 32K, HRP-avidin"}, "牛血清白蛋白(BSA) (bovine) [7]": {"target": "牛血清白蛋白(BSA) (bovine) (UniProt P02769)", "assay": "ELISA, BSA coated at 1 ug/ml, biotin-labelled antibody at dilution 64K, HRP-avidin"}, "牛血清白蛋白(BSA) (bovine) [8]": {"target": "牛血清白蛋白(BSA) (bovine) (UniProt P02769)", "assay": "ELISA, BSA coated at 1 ug/ml, biotin-labelled antibody at dilution 128K, HRP-avidin"}, "牛血清白蛋白(BSA) (bovine) [9]": {"target": "牛血清白蛋白(BSA) (bovine) (UniProt P02769)", "assay": "ELISA, BSA coated at 1 ug/ml, biotin-labelled antibody at dilution 256K, HRP-avidin"}, "牛血清白蛋白(BSA) (bovine) [10]": {"target": "牛血清白蛋白(BSA) (bovine) (UniProt P02769)", "assay": "ELISA, BSA coated at 1 ug/ml, biotin-labelled antibody at dilution 512K, HRP-avidin"}, "牛血清白蛋白(BSA) (bovine) [11]": {"target": "牛血清白蛋白(BSA) (bovine) (UniProt P02769)", "assay": "ELISA, BSA coated at 1 ug/ml, biotin-labelled antibody at dilution 1024K, HRP-avidin"}, "牛血清白蛋白(BSA) (bovine) [12]": {"target": "牛血清白蛋白(BSA) (bovine) (UniProt P02769)", "assay": "indirect ELISA, BSA coated at 1 ug/ml, purified antibody at dilution 1K, HRP goat anti-mouse IgG"}, "牛血清白蛋白(BSA) (bovine) [13]": {"target": "牛血清白蛋白(BSA) (bovine) (UniProt P02769)", "assay": "indirect ELISA, BSA coated at 1 ug/ml, purified antibody at dilution 2K, HRP goat anti-mouse IgG"}, "牛血清白蛋白(BSA) (bovine) [14]": {"target": "牛血清白蛋白(BSA) (bovine) (UniProt P02769)", "assay": "indirect ELISA, BSA coated at 1 ug/ml, purified antibody at dilution 4K, HRP goat anti-mouse IgG"}, "牛血清白蛋白(BSA) (bovine) [15]": {"target": "牛血清白蛋白(BSA) (bovine) (UniProt P02769)", "assay": "indirect ELISA, BSA coated at 1 ug/ml, purified antibody at dilution 8K, HRP goat anti-mouse IgG"}, "牛血清白蛋白(BSA) (bovine) [16]": {"target": "牛血清白蛋白(BSA) (bovine) (UniProt P02769)", "assay": "indirect ELISA, BSA coated at 1 ug/ml, purified antibody at dilution 16K, HRP goat anti-mouse IgG"}, "牛血清白蛋白(BSA) (bovine) [17]": {"target": "牛血清白蛋白(BSA) (bovine) (UniProt P02769)", "assay": "indirect ELISA, BSA coated at 1 ug/ml, purified antibody at dilution 32K, HRP goat anti-mouse IgG"}, "牛血清白蛋白(BSA) (bovine) [18]": {"target": "牛血清白蛋白(BSA) (bovine) (UniProt P02769)", "assay": "indirect ELISA, BSA coated at 1 ug/ml, purified antibody at dilution 64K, HRP goat anti-mouse IgG"}, "牛血清白蛋白(BSA) (bovine) [19]": {"target": "牛血清白蛋白(BSA) (bovine) (UniProt P02769)", "assay": "indirect ELISA, BSA coated at 1 ug/ml, purified antibody at dilution 128K, HRP goat anti-mouse IgG"}, "牛血清白蛋白(BSA) (bovine) [20]": {"target": "牛血清白蛋白(BSA) (bovine) (UniProt P02769)", "assay": "indirect ELISA, BSA coated at 1 ug/ml, purified antibody at dilution 256K, HRP goat anti-mouse IgG"}, "牛血清白蛋白(BSA) (bovine) [21]": {"target": "牛血清白蛋白(BSA) (bovine) (UniProt P02769)", "assay": "indirect ELISA, BSA coated at 1 ug/ml, purified antibody at dilution 512K, HRP goat anti-mouse IgG"}, "牛血清白蛋白(BSA) (bovine) [22]": {"target": "牛血清白蛋白(BSA) (bovine) (UniProt P02769)", "assay": "indirect ELISA, BSA coated at 1 ug/ml, purified antibody at dilution 1024K, HRP goat anti-mouse IgG"}}}
{"binder": "BSA抗体B6 (antibody, V domains shown) VH: VQLQESGAELVKPGASVKLSCKASGYTFTGQYVSWVKQRPGQGLEWIGEDNKSSRQGTEYSKATLTVDKSSSTAYMQLSSLTSEDSAVYYCTRDEVRSETYWGQGTTVTVSS VL: DIVLTQSPATLSVTPGDSVSLSCRTEDKSLSYHWFQQKSHESPRLLIKDAYQKISGIPSRFNGCGSGTDFTLNINSVETEDFGMFFCQTSGWTHFGSGTKLEIKR", "values": [{"measurement": "OD450", "setting": "牛血清白蛋白(BSA) (bovine) [1]", "result": 2.39}, {"measurement": "OD450", "setting": "牛血清白蛋白(BSA) (bovine) [2]", "result": 2.11}, {"measurement": "OD450", "setting": "牛血清白蛋白(BSA) (bovine) [3]", "result": 1.9}, {"measurement": "OD450", "setting": "牛血清白蛋白(BSA) (bovine) [4]", "result": 1.66}, {"measurement": "OD450", "setting": "牛血清白蛋白(BSA) (bovine) [5]", "result": 1.42}, {"measurement": "OD450", "setting": "牛血清白蛋白(BSA) (bovine) [6]", "result": 1.13}, {"measurement": "OD450", "setting": "牛血清白蛋白(BSA) (bovine) [7]", "result": 0.885}, {"measurement": "OD450", "setting": "牛血清白蛋白(BSA) (bovine) [8]", "result": 0.677}, {"measurement": "OD450", "setting": "牛血清白蛋白(BSA) (bovine) [9]", "result": 0.431}, {"measurement": "OD450", "setting": "牛血清白蛋白(BSA) (bovine) [10]", "result": 0.332}, {"measurement": "OD450", "setting": "牛血清白蛋白(BSA) (bovine) [11]", "result": 0.15}, {"measurement": "OD450", "setting": "牛血清白蛋白(BSA) (bovine) [12]", "result": 2.21}, {"measurement": "OD450", "setting": "牛血清白蛋白(BSA) (bovine) [13]", "result": 1.64}, {"measurement": "OD450", "setting": "牛血清白蛋白(BSA) (bovine) [14]", "result": 0.981}, {"measurement": "OD450", "setting": "牛血清白蛋白(BSA) (bovine) [15]", "result": 0.846}, {"measurement": "OD450", "setting": "牛血清白蛋白(BSA) (bovine) [16]", "result": 0.648}, {"measurement": "OD450", "setting": "牛血清白蛋白(BSA) (bovine) [17]", "result": 0.538}, {"measurement": "OD450", "setting": "牛血清白蛋白(BSA) (bovine) [18]", "result": 0.454}, {"measurement": "OD450", "setting": "牛血清白蛋白(BSA) (bovine) [19]", "result": 0.371}, {"measurement": "OD450", "setting": "牛血清白蛋白(BSA) (bovine) [20]", "result": 0.269}, {"measurement": "OD450", "setting": "牛血清白蛋白(BSA) (bovine) [21]", "result": 0.184}, {"measurement": "OD450", "setting": "牛血清白蛋白(BSA) (bovine) [22]", "result": 0.161}]}
